Experimental data taken from patent US20030211076A1, “Compositions and methods for treatment of proliferative disorders” (priority 2003, published 2003).

Legend:
[1] = system: ERK1 and ERK2 MAP kinases; experiment: FGF2-stimulated MAP kinase phosphorylation, Western blot; format: cell-based
Protocol: Since activation of MAP kinases by FGF2 is one of the earliest mitogenic signaling events within cells (Maher), the effects of LO on FGF2-stimulated MAP kinase phosphorylation were tested by Western blot analysis using an antibody specific for phospho-extracellular signal-regulated kinases 1 and 2 (ERK1 and ERK2). The amount of total ERK1 and ERK2 MAP kinases within the same cell extracts was determined by using an antibody that recognizes both the phospho- and non-phospho-forms of ERK1 and ERK2. […] Cell extracts were prepared and equal amounts of proteins (25 μg) were analyzed by 10% SDS-PAGE. Immunoblotting was performed using antibodies specific for the active forms of ERK1 and ERK2 (A) and total ERKs (B).

lysyl oxidase (LO) = target: T1, lysyl oxidase (LO) (Bos taurus, UniProt P33072); experiment: LO-dependent H2O2 release, horseradish peroxidase-coupled fluorescence assay (substrate potential for LO); format: biochemical; details: for substrate of LO (in words): factor as sole substrate, LO-dependent H2O2 release in vitro; for molar ratio of H2O2 released per mole of PDGF-AB at the plateau: 0.11 μM LO, 0.46 μM PDGF-AB
T1 construct: per mature LO molecule (32 kD); from tissue
T1 sequence (P33072 170-418): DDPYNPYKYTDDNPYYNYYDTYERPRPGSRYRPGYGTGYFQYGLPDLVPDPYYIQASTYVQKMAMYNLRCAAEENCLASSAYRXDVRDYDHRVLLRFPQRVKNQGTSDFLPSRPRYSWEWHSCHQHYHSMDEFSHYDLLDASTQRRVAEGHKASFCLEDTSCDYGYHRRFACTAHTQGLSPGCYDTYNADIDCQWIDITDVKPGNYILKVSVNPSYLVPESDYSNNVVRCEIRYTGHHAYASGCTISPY
Protocol: The oxidation of a primary amine substrate by LO yields stoichiometric amounts of the corresponding aldehyde, hydrogen peroxide and ammonia, as shown: RCH2NH2+O2+H2O→RCHO+H2O2+NH3 (Kagan, 1986). To assess the substrate potential of FGF2, LO-dependent H2O2 release was monitored in assays using FGF2 as the sole substrate, using both the optimum temperature for LO activity of 55° C. and the physiological temperature of 37° C. (Trackman et al., 1981).
LO reaction with FGF2 as a substrate was assessed by a horseradish peroxidase-coupled fluorescence assay for H2O2 production. Reaction mixtures contained 0.25 mg of sodium homovanillate(HVA), 40 μg of HRP, and FGF2 at doses as indicated below in 0.05 M sodium borate buffer, pH 8.2, in a final volume of 2 ml. Assays were initiated by the addition of LO to reaction mixtures. H2O2 release was continuously monitored at excitation and emission wavelengths of 315 and 425 nm, respectively, at a constant temperature of 55° C. or 37° C., as specified, in the thermostatted cuvette chamber of an SLM Aminco Bowman Series 2 Luminescence Spectrometer. All activity data were corrected for background rates of H2O2 release determined in complete assay mixtures supplemented with 200 μM BAPN, an irreversible inhibitor of LO. In FIG. 4, solid curves represent the time course of H2O2 release at 55° C. in the reaction of 0.16 μM LO with 0.23 (a), 0.45 (b) and 0.9 (c) μM FGF2, respectively. Dotted curve (d) represents the time course of H2O2 release in the reaction of 0.16 μM LO with 0.9 μM FGF2 at 37° C. The same data were obtained from three separate experiments.
Using the fluorometric assay (Trackman et al., 1981) to monitor LO-dependent H2O2 release in vitro, the substrate potential of other growth factors was also assessed. Major members of the FGF family tested included FGF 1, 4, 5, 6, 7 and EGF (note: All factors are human recombinant forms purchased from R & D Systems, Inc., Minneapolis, Minn.).
A human recombinant disulfide-linked dimer of VEGF165 (MW: 42 kDa)(R & D Systems) as a sole substrate was tested by using the standard in vitro LO catalysis assays as described above for FIG. 4 (Trackman et al., 1981). Curves represent the time course of H2O2 release at 55° C. (a) or 37° C. (b) in the reaction of 0.10 μM LO with 0.45 μM VEGF165. All activity data were corrected for background rates of H2O2 release determined in complete assay mixtures supplemented with the same amounts of LO preincubated with 100 μM BAPN for 15 min at 37° C. The same data were obtained from three separate experiments.
The standard in vitro LO catalysis assays as described above for FIG. 4 (Trackman et al., 1981) using human recombinant PDGF-AB (R & D Systems) as a sole substrate was tested. […] In FIG. 19, curves represent the time course of H2O2 release at 55° C. (a) and 37° C. (b) in the reaction of 0.11 μM LO with 0.46 μM PDGF-AB, respectively. All activity data were corrected for background rates of H2O2 release determined in complete assay mixtures supplemented with the same amounts of LO preincubated with 100 μM BAPN for 15 minutes at 37° C. The same data were obtained from three separate experiments.
To analyze the substrate potential of Tat, the standard in vitro LO catalysis assays as described in FIG. 4 (Trackman et al., 1981) was performed at the optimum temperature of 55° C. and at the physiological temperature of 37° C. A recombinant Tat with 9 lysines in a total of 86 amino acids was used as a sole substrate. FIG. 12A represents a dose and temperature-dependent response. Curves represent the time course of H2O2 release at 55° C. (solid) or 37° C. (dotted) in the reaction of 0.10 μM LO with 0.22 (a and d), 0.43 (b and e) and 0.85 (c and f) μM Tat, respectively. All activity data were corrected for background rates of H2O2 release determined in complete assay mixtures supplemented with the same amounts of LO preincubated with 100 μM BAPN for 15 min at 37° C. […]

[2] = system: FGF2 nuclear localization in Swiss 3T3 cells; experiment: FGF2 nuclear localization, immunochemical staining; format: cell-based; details: 0.28 nM FGF2 for 1 h
Protocol: After endocytosis, a fraction of exogenous FGF2 can enter the nucleus of a variety of cell types in a cell cycle-dependent manner (Mason; Rifkin et al.; Prats et al.; Stachowiak et al., 1996; Arese et al.; Baldin et al.). Thus, the possibility that oxidation of FGF2 by LO affects the nuclear localization of this growth factor was tested by using immunochemistry. In FIGS. […]

[3] = system: growth-arrested Swiss 3T3 cells; experiment: FGF2-stimulated cell cycle progression, FACS analysis; format: cell-based; details: 5 ng FGF2/ml (0.28 nM FGF2), 20 h
Protocol: The activity of native and LO-oxidized FGF2 on cell cycle progression was evaluated by using fluorescence activated cell sorting (FACS) analysis (Darzynkiewicz et al.). Swiss 3T3 cells were growth-arrested by incubation in 0.3% fetal bovine serum (FBS)/Dulbecco's Modified Eagle's Medium (DMEM) for 3 days. As depicted in FIGS. 6A-6C, the prepared growth-arrested cells were treated for 20 h at 37° C. with or without FGF2, LO, BAPN or their combinations as indicated. After treatment, cells were washed, suspended by treatment with trypsin, washed again and fixed in 0.5% formaldehyde/0.1% Triton X-100/PBS for 15 minutes on ice followed by incubation of samples in 10 μg propidium iodide and 20 units RNAse per ml of PBS for 60 minutes in the dark for DNA staining. The fluorescence intensities of each sample of 10,000 cells in G1, S and G2/M phases were measured by flow cytometry at the FL2 setting of the fluorescence activated cell sorting (FACS) instrument (Becton-Dickinson Corp.). […] LO was presented at 10 nM, FGF2 at 5 ng ml^−1 and BAPN at 100 μM. Data represent the means (+sd) of three separate experiments each assessed with duplicate dishes.

[4] = system: growth-arrested Swiss 3T3 cells; experiment: PDGF-AB-stimulated cell cycle progression, FACS analysis; format: cell-based; details: 15 ng PDGF-AB/ml (0.56 nM), 20 h
Protocol: Growth-arrested Swiss 3T3 cells were incubated for 20 h at 37° C. with or without PDGF-AB, LO, BAPN or their combinations as indicated. After incubation, FACS analysis was carried out to characterize the cell cycle progression under different conditions as described in FIG. 6. FIG. 20A represents a dose response of PDGF-AB in cell cycle progression. FIG. 20B represents the LO inhibition of PDGF-AB-stimulated cell cycle progression (the control represents cells treated with 15 ng ml^−1 PDGF-AB in the absence of added LO). FIG. 20C represents the effects of inactivation of LO by BAPN on PDGF-AB-stimulated the cell cycle progression. LO: 15 nM, PDGF-AB: 15 ng ml^−1, BAPN: 100 AM. Data represent the means (±sd) of three separate experiments each assessed with triplicate dishes.

Compound	MAP kinase activation by FGF2 ([1]; 200 μM genistein)	maximum H2O2 released per mole of FGF2 (lysyl oxidase (LO); 37° C., 0.16 μM LO, 0.9 μM FGF2)	molar ratio H2O2 released per mole of FGF2 at the plateau (lysyl oxidase (LO); 55° C., 0.16 μM LO, 0.23 μM FGF2)	molar ratio H2O2 released per mole of FGF2 at the plateau (lysyl oxidase (LO); 55° C., 0.16 μM LO, 0.45 μM FGF2)	molar ratio H2O2 released per mole of FGF2 at the plateau (lysyl oxidase (LO); 55° C., 0.16 μM LO, 0.9 μM FGF2)	molar ratio H2O2 released per mole of FGF2, mean±standard deviation (lysyl oxidase (LO); 55° C., 0.16 μM LO, mean over 0.23, 0.45 and 0.9 μM FGF2)	substrate of LO (in words) (lysyl oxidase (LO))	tyrosine phosphorylation of 42- and 44-kDa ERKs ([1]; 5 ng/ml FGF2, 10 min, versus control)	nuclear FGF2 staining [2]	relative number of cells entering the S-M phases versus control (maximum effect) [3]	molar ratio of H2O2 released per mole of PDGF-AB at the plateau (lysyl oxidase (LO); 37° C.)	molar ratio of H2O2 released per mole of PDGF-AB at the plateau (lysyl oxidase (LO); 55° C.)	cells entering the S-M phases versus control (maximum effect) [4]
O=c1c(-c2ccc(O)cc2)coc2cc(O)cc(O)c12 [genistein, reference compound]	inhibited												
FGF2: 18 kDa human recombinant FGF2, 14 lysine residues		5.3 moles of H2O2 per mole of FGF2	14.1	14.6	14.2	14.3±0.3	productive substrate for LO	markedly increased	significantly increased nuclear staining	4.7 fold			
PDGF-AB: 27 kDa human recombinant PDGF-AB heterodimer, 21 lysine residues							substrates of LO				3.0	19.5	3.3 fold
